This is an account of results in patent US20100202967A1 (BRACCO IMAGING, published 2010).

Bridge positions count the residues as written; N and C are the ends. Square brackets hold non-standard residues; d marks the D form. * marks the point of attachment. αGalNAc = CC(=O)N[C@@H]1[C@@H](O)[C@@H](O)[C@@H](CO)O[C@@H]1*; Hyp = O=C(O)[C@@H]1C[C@@H](O)CN1; Cha = N[C@@H](CC1CCCCC1)C(=O)O; CF5 = 5-carboxyfluorescein; AEEA = NCCOCCOCC(=O)O

T1: fibrin
T1 chain 1: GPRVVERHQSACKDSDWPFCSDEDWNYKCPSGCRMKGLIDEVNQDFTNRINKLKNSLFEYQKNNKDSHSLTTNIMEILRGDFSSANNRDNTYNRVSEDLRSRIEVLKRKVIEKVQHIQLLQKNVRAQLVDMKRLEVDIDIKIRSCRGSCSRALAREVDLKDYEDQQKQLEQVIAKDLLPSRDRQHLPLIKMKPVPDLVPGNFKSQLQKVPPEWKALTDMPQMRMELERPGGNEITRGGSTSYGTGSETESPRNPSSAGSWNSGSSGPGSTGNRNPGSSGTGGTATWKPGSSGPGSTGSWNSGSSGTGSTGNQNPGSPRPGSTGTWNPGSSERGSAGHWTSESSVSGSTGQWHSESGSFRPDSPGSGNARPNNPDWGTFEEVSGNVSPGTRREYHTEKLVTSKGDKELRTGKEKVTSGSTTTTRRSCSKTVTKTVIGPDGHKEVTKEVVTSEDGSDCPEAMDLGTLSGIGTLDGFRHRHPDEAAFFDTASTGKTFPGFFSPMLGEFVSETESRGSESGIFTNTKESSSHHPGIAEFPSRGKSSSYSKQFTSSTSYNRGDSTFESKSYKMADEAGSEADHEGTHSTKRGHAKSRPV
T1 chain 2: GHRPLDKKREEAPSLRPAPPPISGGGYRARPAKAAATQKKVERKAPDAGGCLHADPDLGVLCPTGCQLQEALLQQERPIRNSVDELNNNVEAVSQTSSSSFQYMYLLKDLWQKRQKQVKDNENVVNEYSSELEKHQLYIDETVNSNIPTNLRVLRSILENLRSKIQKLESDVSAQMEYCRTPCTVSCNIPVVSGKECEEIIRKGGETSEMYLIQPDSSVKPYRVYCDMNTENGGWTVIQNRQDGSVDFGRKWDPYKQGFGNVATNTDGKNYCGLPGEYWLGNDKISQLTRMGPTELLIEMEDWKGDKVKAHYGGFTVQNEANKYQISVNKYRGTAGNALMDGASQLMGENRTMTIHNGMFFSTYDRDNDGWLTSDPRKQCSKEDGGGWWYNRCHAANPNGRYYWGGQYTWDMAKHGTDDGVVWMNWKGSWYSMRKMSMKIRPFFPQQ
T1 chain 3: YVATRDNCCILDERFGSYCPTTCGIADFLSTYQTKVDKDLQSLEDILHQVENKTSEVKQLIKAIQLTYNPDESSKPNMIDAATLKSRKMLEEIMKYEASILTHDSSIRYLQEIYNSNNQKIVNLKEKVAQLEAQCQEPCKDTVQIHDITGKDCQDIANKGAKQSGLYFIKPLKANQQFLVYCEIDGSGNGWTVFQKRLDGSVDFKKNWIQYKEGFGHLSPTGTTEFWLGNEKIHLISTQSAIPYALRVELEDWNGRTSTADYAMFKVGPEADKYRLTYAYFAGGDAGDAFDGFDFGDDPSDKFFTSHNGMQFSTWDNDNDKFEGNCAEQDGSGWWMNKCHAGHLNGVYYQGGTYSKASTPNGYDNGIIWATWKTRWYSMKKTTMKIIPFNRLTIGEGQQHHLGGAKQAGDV

B1: Ac-WQPC*PAESWTFC*WDPGGGK-NH2 (peptide)
peptide: Ac-WQPCPAESWTFCWDPGGGK-NH2
modifications: disulfide 4-12
SMILES: CC(=O)N[C@@H](Cc1c[nH]c2ccccc12)C(=O)N[C@@H](CCC(N)=O)C(=O)N1CCC[C@H]1C(=O)N[C@H]1CSSC[C@@H](C(=O)N[C@@H](Cc2c[nH]c3ccccc23)C(=O)N[C@@H](CC(=O)O)C(=O)N2CCC[C@H]2C(=O)NCC(=O)NCC(=O)NCC(=O)N[C@@H](CCCCN)C(N)=O)NC(=O)[C@H](Cc2ccccc2)NC(=O)[C@H]([C@@H](C)O)NC(=O)[C@H](Cc2c[nH]c3ccccc23)NC(=O)[C@H](CO)NC(=O)[C@H](CCC(=O)O)NC(=O)[C@H](C)NC(=O)[C@@H]2CCCN2C1=O
B2: Ac-S(Galnac)-JWQPC*PWESWTFC*WDPGGGK-NH2 (peptide)
peptide: Ac-S(αGalNAc)[AEEA]WQPCPWESWTFCWDPGGGK-NH2
modifications: disulfide 6-14
SMILES: CC(=O)N[C@H]1[C@@H](OC[C@H](NC(C)=O)C(=O)NCCOCCOCC(=O)N[C@@H](Cc2c[nH]c3ccccc23)C(=O)N[C@@H](CCC(N)=O)C(=O)N2CCC[C@H]2C(=O)N[C@H]2CSSC[C@@H](C(=O)N[C@@H](Cc3c[nH]c4ccccc34)C(=O)N[C@@H](CC(=O)O)C(=O)N3CCC[C@H]3C(=O)NCC(=O)NCC(=O)NCC(=O)N[C@@H](CCCCN)C(N)=O)NC(=O)[C@H](Cc3ccccc3)NC(=O)[C@H]([C@@H](C)O)NC(=O)[C@H](Cc3c[nH]c4ccccc34)NC(=O)[C@H](CO)NC(=O)[C@H](CCC(=O)O)NC(=O)[C@H](Cc3c[nH]c4ccccc34)NC(=O)[C@@H]3CCCN3C2=O)O[C@H](CO)[C@H](O)[C@@H]1O
B3: Ac-RRGGWQPC*PWESWTFC*WDPGGGK-NH2 (peptide)
peptide: Ac-RRGGWQPCPWESWTFCWDPGGGK-NH2
modifications: disulfide 8-16
SMILES: CC(=O)N[C@@H](CCCNC(=N)N)C(=O)N[C@@H](CCCNC(=N)N)C(=O)NCC(=O)NCC(=O)N[C@@H](Cc1c[nH]c2ccccc12)C(=O)N[C@@H](CCC(N)=O)C(=O)N1CCC[C@H]1C(=O)N[C@H]1CSSC[C@@H](C(=O)N[C@@H](Cc2c[nH]c3ccccc23)C(=O)N[C@@H](CC(=O)O)C(=O)N2CCC[C@H]2C(=O)NCC(=O)NCC(=O)NCC(=O)N[C@@H](CCCCN)C(N)=O)NC(=O)[C@H](Cc2ccccc2)NC(=O)[C@H]([C@@H](C)O)NC(=O)[C@H](Cc2c[nH]c3ccccc23)NC(=O)[C@H](CO)NC(=O)[C@H](CCC(=O)O)NC(=O)[C@H](Cc2c[nH]c3ccccc23)NC(=O)[C@@H]2CCCN2C1=O

The first assay addresses T1, fibrin. The assay can be described thus: fluorescence polarization, direct binding (n = 2). In general terms: Fluorescence polarisation rises when a labelled molecule tumbles more slowly, as on binding a larger partner.
A word on the Kd: it is the constant that tells how readily two partners part at equilibrium. Consider Ac-SGSGSGSGWQPCPAESWTFCWDPGGGK(CF5)-NH2 (disulfide 12-20) [Ac-SGSGSGSGWQPC*PAESWTFC*WDPGGGK(CF5)-NH2], for which binding was put at a Kd of 530 nM.
The same measure, in the same setting: as for Ac-GWQPCPWESWTFCWDPGGGK(CF5)-NH2 (disulfide 5-13) [Ac-GWQPC*PWESWTFC*WDPGGGK(CF5)-NH2], the figure is 230 nM; as for Ac-KGKGKGWQPCPWESWTFCWDPGGGK(CF5)-NH2 (disulfide 10-18) [Ac-KGKGKGWQPC*PWESWTFC*WDPGGGK(CF5)-NH2], 760 nM.
Ac-RRGGWQPCPAESWTFCWDPGGGK(CF5)-NH2 (disulfide 8-16) [Ac-RRGGWQPC*PAESWTFC*WDPGGGK(CF5)-NH2] displayed a Kd of 220 nM.
Still for that read-out and setting: as for Ac-SGSGSGSGWQPCPWESWTFCWDPGGGK(CF5)-NH2 (disulfide 12-20) [Ac-SGSGSGSGWQPC*PWESWTFC*WDPGGGK(CF5)-NH2], the figure is 470 nM; as for Ac-WQPCPAESWT[Cha]CWDPGGGK(CF5)-NH2 (disulfide 4-12) [Ac-WQPC*PAESWT-Cha-C*WDPGGGK(CF5)-NH2], 170 nM; as for Ac-GPPGWQPCPAESWTFCWDPGGGK(CF5)-NH2 (disulfide 8-16) [Ac-GPPGWQPC*PAESWTFC*WDPGGGK(CF5)-NH2], 310 nM.
The molecule Ac-RWQPCPAESWT[Cha]CWDPGGGK(CF5)-NH2 (disulfide 5-13) [Ac-RWQPC*PAESWT-Cha-C*WDPGGGK(CF5)-NH2] gave a Kd of 80 nM.
Same read-out and setting: as for Ac-GGRGWQPCPAESWTFCWDPGGGK(CF5)-NH2 (disulfide 8-16) [Ac-GGRGWQPC*PAESWTFC*WDPGGGK(CF5)-NH2], the figure is 520 nM; as for Ac-GPPGWQPCPWESWTFCWDPGGGK(CF5)-NH2 (disulfide 8-16) [Ac-GPPGWQPC*PWESWTFC*WDPGGGK(CF5)-NH2], 250 nM; as for Ac-S(αGalNAc)WQPCPWESWTFCWDPGGGK(CF5)-NH2 (disulfide 5-13) [Ac-S(Galnac)-WQPC*PWESWTFC*WDPGGGK(CF5)-NH2], 500 nM.
Ac-KKGWQPCPWESWTFCWDPGGGK(CF5)-NH2 (disulfide 7-15) [Ac-KKGWQPC*PWESWTFC*WDPGGGK(CF5)-NH2] returned a Kd of 710 nM.
In turn, Ac-SGSG[AEEA]WQPCPAESWTFCWDPGGGK(CF5)-NH2 (disulfide 9-17) [Ac-SGSGJWQPC*PAESWTFC*WDPGGGK(CF5)-NH2] registered a Kd of 570 nM.
On the same count and under the same terms, under Ac-GGRGWQPCPWESWTFCWDPGGGK(CF5)-NH2 (disulfide 8-16) [Ac-GGRGWQPC*PWESWTFC*WDPGGGK(CF5)-NH2] stands 290 nM; under Ac-SGSG[AEEA]WQPCPWESWTFCWDPGGGK(CF5)-NH2 (disulfide 9-17) [Ac-SGSGJWQPC*PWESWTFC*WDPGGGK(CF5)-NH2], 450 nM.
On the same count and under the same terms, under H-RGWQPCPWESWTFCWDPGGGK(CF5)-NH2 (disulfide 6-14) [RGWQPC*PWESWTFC*WDPGGGK(CF5)-NH2] stands 280 nM.

A further assay addresses T1, fibrin. The experiment in a line: competition fluorescence polarization assay (n = 2).
As to H-RGWQPCPWESWTFCWDPGGGK-NH2 (disulfide 6-14) [RGWQPC*PWESWTFC*WDPGGGK-NH2], the “Rel IC50” value was 0.511 ratio to Ac-Seq000-GGGK-NH2.
On the same count and under the same terms, as for B1, the figure is 0.875 ratio to Ac-Seq000-GGGK-NH2; as for Ac-S(αGalNAc)WQPCPWESWTFCWDPGGGK-NH2 (disulfide 5-13) [Ac-S(Galnac)-WQPC*PWESWTFC*WDPGGGK-NH2], 0.559 ratio to Ac-Seq000-GGGK-NH2; as for B2, 1.15 ratio to Ac-Seq000-GGGK-NH2.
On the same count and under the same terms, as for Ac-KKGWQPCPWESWTFCWDPGGGK-NH2 (disulfide 7-15) [Ac-KKGWQPC*PWESWTFC*WDPGGGK-NH2], the figure is 0.357 ratio to Ac-Seq000-GGGK-NH2; as for B3, 0.125 ratio to Ac-Seq000-GGGK-NH2; as for Ac-KGKGKGWQPCPWESWTFCWDPGGGK-NH2 (disulfide 10-18) [Ac-KGKGKGWQPC*PWESWTFC*WDPGGGK-NH2], 0.595 ratio to Ac-Seq000-GGGK-NH2.
On the same count and under the same terms, as for Ac-SGSG[AEEA]WQPCPWESWTFCWDPGGGK-NH2 (disulfide 9-17) [Ac-SGSGJWQPC*PWESWTFC*WDPGGGK-NH2], the figure is 0.714 ratio to Ac-Seq000-GGGK-NH2; as for H-RWQPCPWESWTFCWDPGGGK-NH2 (disulfide 5-13) [RWQPC*PWESWTFC*WDPGGGK-NH2], 0.47 ratio to Ac-Seq000-GGGK-NH2.
On to Ac-GPPGWQPCPWESWTFCWDPGGGK-NH2 (disulfide 8-16) [Ac-GPPGWQPC*PWESWTFC*WDPGGGK-NH2], for which the “Rel IC50” value was 0.235 ratio to Ac-Seq000-GGGK-NH2.
Still for that read-out and setting: as for Ac-WQPC[Hyp]WESWTFCWDPGGGK-NH2 (disulfide 4-12) [Ac-WQPC*-Hypt4-WESWTFC*WDPGGGK-NH2], the figure is 0.55 ratio to Ac-Seq000-GGGK-NH2; as for Ac-SGSGSGSGWQPCPWESWTFCWDPGGGK-NH2 (disulfide 12-20) [Ac-SGSGSGSGWQPC*PWESWTFC*WDPGGGK-NH2], 0.527 ratio to Ac-Seq000-GGGK-NH2; as for Ac-GGRGWQPCPWESWTFCWDPGGGK-NH2 (disulfide 8-16) [Ac-GGRGWQPC*PWESWTFC*WDPGGGK-NH2], 0.37 ratio to Ac-Seq000-GGGK-NH2.
